Experimental data: the supplement of paper PMC9170038

What was measured:
[1] = tested on: K4 kissing-loop RNA reporter; assay: apparent KD of K4 kissing-loop reporter; higher = weaker reporter binding; conditions: Eterna round: R107;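 also: bound reporter read as fluorescence of individual clusters on recovered sequencing chips by microscopy, with normalized cluster intensities fitted with a binding model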
Method: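 RNA-MaP round R107: designed RNA switches with theophylline, tryptophan, arginine or FMN aptamers are transcribed on-chip within common flanks. They are titrated with a labelled K4 kissing-loop RNA reporter in RNA-MaP buffer (100 mM Tris pH 7.5, 80 mM KCl, 4 mM MgCl2), without ligand or with the indicated ligand. Median apparent KD per design.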

[2] = tested on: MS2 coat protein; assay: apparent KD of MS2 coat protein; designed switch direction (-1 OFF switch, 1 ON switch): -1; higher = weaker reporter binding
Method in brief: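 Designed RNA switches with common flanks were made on Illumina chips by stalled E. coli RNA polymerase. Titration with SNAP-549-labelled MS2 coat protein doubled from 0.7 or 1.5 nM up to 3 µM. Apparent KD is each design's median over clusters after curve-fitting normalised fluorescence.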

[3] = input ligand: theophylline 20 uM
[4] = input ligand: tryptophan 2.4 mM
[5] = input ligand: microRNA oligo, concentration not stated
[6] = Eterna round: R95, input ligand: FMN 200 uM
[7] = Eterna round: R95, input ligand: microRNA oligo, concentration not stated
[8] = Eterna round: R95, input ligand: none

Sequence | apparent KD of MS2 coat protein ([2]; input ligand: FMN 200 uM) [nM] | apparent KD of MS2 coat protein ([2]; input ligand: none) [nM] | apparent KD of MS2 coat protein [2, 5] [nM] | apparent KD of MS2 coat protein [2, 7] [nM] | also measured
UGUGUACCGGGAAGGAGCGUGAAUGAGAAUGGAUAUAGUGAUGUUAUAUAUACGAACGAAUCGCAGGUAGGUCGCCCGGAUCCCU [SSArgB.Y] |  |  |  |  | apparent KD of K4 kissing-loop reporter ([1]; input ligand: FMN 200 uM): 418 nM; apparent KD of K4 kissing-loop reporter ([1]; input ligand: arginine 13.2 mM): 408 nM; apparent KD of K4 kissing-loop reporter ([1]; input ligand: none): 432 nM; apparent KD of K4 kissing-loop reporter [1, 3]: 444 nM; apparent KD of K4 kissing-loop reporter [1, 4]: 345 nM
GCGCGUCAUGUCAGCGGUGACACUGUCGAUACCAGCGCCGGAAGGCGCCCUUGGCAGCGACGUGCUGGAGUGAUGUUCCAGCGUG [#2 Exclusion - Theophylline A Attempt #26 (HarryS)] |  |  |  |  | apparent KD of K4 kissing-loop reporter ([1]; input ligand: FMN 200 uM): 197 nM; apparent KD of K4 kissing-loop reporter ([1]; input ligand: arginine 13.2 mM): 158 nM; apparent KD of K4 kissing-loop reporter ([1]; input ligand: none): 178 nM; apparent KD of K4 kissing-loop reporter [1, 3]: 206 nM; apparent KD of K4 kissing-loop reporter [1, 4]: 157 nM
GCAUGAUAGUAAGGAUAUAGAUAAUCCUUAUAUAUAUCGAGUGAUGUUCGAUGUGCCAAGGUACAUCUAGAAGGUACUGUAAGGU [Same State FMN B GF 17] |  |  |  |  | apparent KD of K4 kissing-loop reporter ([1]; input ligand: FMN 200 uM): 265 nM; apparent KD of K4 kissing-loop reporter ([1]; input ligand: arginine 13.2 mM): 288 nM; apparent KD of K4 kissing-loop reporter ([1]; input ligand: none): 257 nM; apparent KD of K4 kissing-loop reporter [1, 3]: 355 nM; apparent KD of K4 kissing-loop reporter [1, 4]: 239 nM
UUUUAGUAAGGAUAUGGUUAGAUCUACUUCGGUAGAUCUAACCAGAAGGUACAUGAGGAUCACCCAUGUAGAUA [Mod of Brourd 19 - Jieux - Exclusion 4] (Eterna round: R97, puzzle: Exclusion 4) | 25.2 | 25.3 |  |  | 
UAGUUAUUCACAGGAUAUCGCCUCUUAUUACAUGAGGAUCACCCAUGUUUAGUUAGUUACAUGUUCGAGAAGGGUGUAGUUGUU [JR_ExcNG2_Sub043] (Eterna round: R96, puzzle: Exclusion NG 2) |  |  | 290 |  | 
UUUAAUUUUUUUUUUUUACAAGCUUUUUGCUCGUCUUAUACAUGAGGAUCACCCAUGUGGGUGAGAGAUAAAUUAUC [JMF 14] (puzzle: Sensor v3, turn-off variant 2) |  |  |  | 17 | apparent KD of MS2 coat protein [2, 6]: 53.2 nM; apparent KD of MS2 coat protein [2, 8]: 64.2 nM
UACAUGAGGAUCACCCAUGUUUUGUCGUGUAUGGUAUUUAUCUAGGAUAUCAAUGUAUAUAUUUAUGAGAAGGAGAAUAUUAAU [JMF's solution 42] (Eterna round: R96, puzzle: Exclusion NG 3) | 37.4 | 34 | 25.1 |  | 
AAAUAACAAGCGAGAUCCUACAUGAGGAUCACCCAUGUGCUCGUCUUAAUAAGUACUAUCACGAAAGUGAUAGUACA [Mat - Sensor v3 - turn-off var 1 - Eli Mod - D67] (Eterna round: R96, puzzle: Sensor v3, turn-off variant 1) | 15.8 | 18.2 | 333 |  | 
AUAAUUAAUGCAGGAUAUCAGCACGAUUAGUGCUGAGAAGGGCACAUGAGGAUCACCCAUGUGAUCAAUUAAUAUUAAUAUUAU [ENG1/11-D1] (Eterna round: R96, puzzle: Exclusion NG 1) | 279 | 61.6 | 53 |  | 
UUCUUGGCAGGAUAUGCUUUUUUAGACAUGAGGAUCACCCAUGUGAUGAUUAUUGGUUUUGCAGAAGGGCCUUAAU [JR_E5_Sub041] (puzzle: Exclusion 5) |  |  |  | 49.4 | 
GGUACUAACACGAGAGUGUUAGUACUAUAAGCUUGUGUUACAUGAGGAUCACCCAUGUCCUCAUAAGCUCGUCUUGU [Mat - Sensor v3 - Turn-off var 2 - D88] (puzzle: Sensor v3, turn-off variant 2) |  |  |  | 54.8 | apparent KD of MS2 coat protein [2, 6]: 48.2 nM; apparent KD of MS2 coat protein [2, 8]: 46.8 nM
AUUAUUUAAGUCAGGAUAUCGUAUUUAUUUAAAUACGAGAAGGGACAUGAGGAUCACCCAUGUAAUAAAUUUUU [JMFs Solution 3] (puzzle: Brourd's mod of Exclusion 4) |  |  |  | 17.2 | 
GGAAAUCAUGUAGGAUAUGCGUGGCGAAGCUAUGCAGAAGGACAUGAGGAUCACCCAUGUGCUUCCGUCUGCGUACAGACGGUA [Mat - Exclusion NG 1 - Mod of JL - D19] (Eterna round: R96, puzzle: Exclusion NG 1) | 80.2 | 143 | 78.5 |  | 
CUUUUGUGAGGAUAUCAGUGGUAAUACAAUAGUAUUACUACUGAGAAGGCACAUGAGGAUCACCCAUGUUCCUC [Ex4 344 Omei mod 11] (puzzle: Exclusion 4) |  |  |  | 43.1 | 
UUUACAAGCUAUUGAUCCCACAUGAGGAUCACCCAUGUUCCUGGCCGUGAGGCUAGGUAAACAAUAGCUCGUCUUAU [Sensor-V1 #41] (Eterna round: R97, puzzle: Sensor, turn-off variant 1) | 98.4 | 95.1 |  |  | 
UUUAUAUAUGAAGGAUAUACUUAACAUGAGGAUCACCCAUGUGGUGUUGUGAGUGAGUGAGUUUAGUAGAAGGUCAAUUAUUUU [JMF's solution 27] (Eterna round: R96, puzzle: Exclusion NG 2) | 594 | 310 | 237 |  | 
AUUGAGCUAGGAUAUACAUGAGGAUCACCCAUGUAGCAAAAUAGCUAUACAUGAUCGGGUAGAAGGAGCGCGAG [Tirivela] (puzzle: Exclusion 3) |  |  |  | 14.3 | 
GAUUAUGCGAGCUUUAGGGACAUGAGGAUCACCCAUGUUCGUCUUAUUGGUCUAGGUACACUAACAUACCUAAAUCU [JMF 19] (puzzle: Sensor v3, turn-off variant 1) |  |  |  | 38.9 | apparent KD of MS2 coat protein [2, 6]: 20.4 nM; apparent KD of MS2 coat protein [2, 8]: 21.3 nM
ACGUGAUAUCUGUCGGUGGACAUGAGGAUCACCCAUGUAAGCUUUUUGCUUGUCUUAUAACCCGGUGACAGACCUUC [Inxeer] (Eterna round: R96, puzzle: Sensor v3, turn-off variant 1) | 35.5 | 35.1 | 349 |  | 
UUAAUUAGCUCGCUAGAUCCUCACAUGAGGAUCACCCAUGUGCAGGAUAUCAGCUCGUGUAGAGCUGAGAAGGGCACUGCGAGC [ExNG3/10-A3] (Eterna round: R96, puzzle: Exclusion NG 3) | 51.6 | 108 | 88.2 |  | 
AAGAAGAUAGGAUAUACGAGGAGAGGAGAGAAGAGGAGAGGACAUGAGGAUCACCCAUGUAGAAGGAUCAGGAA [JR_Exclu2_Sub062] (puzzle: Exclusion 2) |  |  |  | 29.6 | apparent KD of MS2 coat protein [2, 6]: 28.9 nM; apparent KD of MS2 coat protein [2, 8]: 28.5 nM
UUUUAAAAGCUGAGAUCCUACAUGAGGAUCACCCAUGUGGUCCGGAAAAUUUUGUCACCGGAUUUUGCUCGUCUUGU [salish99_S_TOV1_R5_103] (Eterna round: R97, puzzle: Sensor, turn-off variant 1) | 102 | 114 |  |  | 
CGUGACUCAGGAUAUCGAUUAUAUCACAUGAGGAUCACCCAUGUCCAGCGAAAGCUGGAGUGAGAAGGGAGUCACG [Fiskers Ex 5 - 49] (puzzle: Exclusion 5) |  |  |  | 107 | apparent KD of MS2 coat protein [2, 6]: 47.6 nM; apparent KD of MS2 coat protein [2, 8]: 109 nM
GGUGCGUAUGUGAGGAUAUGCUGGUCCUUGGUUCAGCAGAAGGCACAUGAGGAUCACCCAUGUGGUGUCGUACC [salish99_Bmod_Ex4_025] (puzzle: Brourd's mod of Exclusion 4) |  |  |  | 188 | 
ACGUGAUAUCUGUCGGUGGACAUGAGGAUCACCCAUGUGAGCUUUUUGCUCGUCUUACAACCCGGUGACAGACCUUC [Bebitier] (puzzle: Sensor v3, turn-off variant 1) |  |  |  | 262 | apparent KD of MS2 coat protein [2, 6]: 23.6 nM; apparent KD of MS2 coat protein [2, 8]: 21.4 nM
GCAUGGAGACAGGAUAUCCGCGCGAACAAAAUAGGAGAAGGGUCUACAUGAGGAUCACCCAUGUGACGGUAUCC [Aedenqu] (puzzle: Exclusion 6) |  |  |  | 21.7 | apparent KD of MS2 coat protein [2, 6]: 62.2 nM; apparent KD of MS2 coat protein [2, 8]: 27.2 nM
